Measured values published in patent publication US5691180.

Tests used:
[1] = target: iminobiotinylated bovine fetuin (bovine) (UniProt P12763)
[2] = target: IgG-Sepharose (Pharmacia); test: IgG-Sepharose batch adsorption of conditioned medium, GalNAc-transferase activity assayed on the beads (Table 1B, Sepharose-IgG: applied 4914, flowthrough 214, bound 1853 units)

Substance | Released activity (units) of GalNAc-transferase [1] [units] | percent of applied activity bound [2] [%]
UDP-GalNAc: NeuAcα2,3Galβ-R β1,4-N-acetyl-galactosamine-transferase encoded by pCDM8-CT (full-length, wild type enzyme) | 8390 | 
protein A-GalNAc-transferase fusion protein (pPROTA-CTc) (from UniProt P38507) (enzyme) | 9830 | 37
